Assay results reported in patent publication US20090317382A1 (Genmab, published 2009).

B1: IgG4-637 (antibody)
heavy: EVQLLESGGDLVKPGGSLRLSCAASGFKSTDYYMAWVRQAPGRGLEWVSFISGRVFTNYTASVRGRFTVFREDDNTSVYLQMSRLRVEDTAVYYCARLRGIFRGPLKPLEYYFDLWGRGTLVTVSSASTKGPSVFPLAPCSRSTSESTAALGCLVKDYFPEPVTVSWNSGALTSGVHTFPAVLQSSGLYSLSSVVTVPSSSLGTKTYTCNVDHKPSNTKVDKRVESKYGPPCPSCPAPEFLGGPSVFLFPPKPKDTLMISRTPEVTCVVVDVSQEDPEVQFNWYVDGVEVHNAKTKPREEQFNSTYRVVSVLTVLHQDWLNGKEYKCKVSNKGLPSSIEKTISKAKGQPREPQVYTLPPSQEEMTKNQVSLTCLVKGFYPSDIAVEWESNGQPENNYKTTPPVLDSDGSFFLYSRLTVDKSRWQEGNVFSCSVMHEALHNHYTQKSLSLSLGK
light: EIELTQPHSVSESPGKTVTISCTRSSGSIASNYVQWYQQRPGSSPTTVIYEDNQRPSGVPDRFSGSIDSSSNSASLTISGLKTEDEADYYCQSYDSNSGGRVFGGGTKLTVLGQPKAAPSVTLFPPSSEELQANKATLVCLISDFYPGAVTVAWKADSSPVKAGVETTTPSKQSNNKYAASSYLSLTPEQWKSHRSYSCQVTHEGSTVEKTVAPTECS
notes: also called anti-MG
B2: IgG1-637 (antibody)
heavy: not shown
VL: EIELTQPHSVSESPGKTVTISCTRSSGSIASNYVQWYQQRPGSSPTTVIYEDNQRPSGVPDRFSGSIDSSSNSASLTISGLKTEDEADYYCQSYDSNSGGRVFGGGTKLTVL

Experiments:
[1] = biological target: T1, human AChR from membrane extracts of TE671 cells (human, UniProt P02708 21-457; P11230 24-501; P07510 23-517; Q07001 22-517)
[2] = biological target: T1, human AChR from membrane extracts of …; remark: listed apart in the source
human C1q [3] = biological target: T2, human C1q (human, UniProt P02745 23-245; P02746 28-253; P02747 29-245); assay: ELISA: IgG coated at varied concentration, C1q binding read as OD405; sheet heading '3% human serum'
T2 construct: The method names purified human C1q at 2 µg/ml; also called C1q (Quidel, A400); first component of the classical complement system
T2 sequence (P02745 23-245 limits assumed, chain 1 of 3): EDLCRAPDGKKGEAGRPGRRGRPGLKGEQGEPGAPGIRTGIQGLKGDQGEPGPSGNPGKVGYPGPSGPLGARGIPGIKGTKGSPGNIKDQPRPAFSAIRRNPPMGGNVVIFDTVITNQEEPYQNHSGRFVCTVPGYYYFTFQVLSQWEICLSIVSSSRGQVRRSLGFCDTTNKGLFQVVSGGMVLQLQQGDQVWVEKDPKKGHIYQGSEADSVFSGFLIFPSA
T2 sequence (P02746 28-253 limits assumed, chain 2 of 3): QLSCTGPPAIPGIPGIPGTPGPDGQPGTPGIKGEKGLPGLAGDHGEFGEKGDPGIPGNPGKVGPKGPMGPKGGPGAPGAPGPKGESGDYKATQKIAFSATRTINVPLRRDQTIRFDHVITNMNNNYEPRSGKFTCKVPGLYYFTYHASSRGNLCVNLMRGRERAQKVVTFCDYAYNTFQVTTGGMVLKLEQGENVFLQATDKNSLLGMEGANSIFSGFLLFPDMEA
T2 sequence (P02747 29-245 limits assumed, chain 3 of 3): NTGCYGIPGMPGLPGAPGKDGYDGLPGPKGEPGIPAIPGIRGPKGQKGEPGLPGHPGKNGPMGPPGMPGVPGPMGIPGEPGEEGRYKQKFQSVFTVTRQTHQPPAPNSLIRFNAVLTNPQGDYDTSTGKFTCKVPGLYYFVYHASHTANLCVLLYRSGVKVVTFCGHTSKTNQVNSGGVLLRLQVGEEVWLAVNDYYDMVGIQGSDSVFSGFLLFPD

[4] = biological target: T1, human AChR from membrane extracts of …; remark: listed apart in the source
AChR of rhesus monkeys = biological target: T3, AChR of rhesus monkeys (rhesus monkey (Macaca mulatta)); assay: immunohistochemistry of endplates in human and monkey biopsies, qualitative comparison of staining intensities
T3 construct: In muscle tissue (sections of biopsies, or in the living animal); also called macaque AChR; monkey receptor

human C1q [5] = biological target: T2, human C1q; assay: ELISA: IgG coated at varied concentration (the concentration is that of the coating), C1q binding read as OD405, 3% human serum
Description: (§1) Subsequently, plates were emptied. For the C3 and C4 ELISAs the wells were washed 3 times with 200 μl PBST (PBS supplemented with 0.05% (v/v) tween-20). Subsequently, for C1q ELISA, wells were incubated with 2 μg/mi human C1q (Quidel, San Diego, Calif., USA, A400) in C1q buffer (100 μl/well, 37° C., 1 h). […] After washing the plates (3×) with PBST for the C3 and C4 ELISA and C1q buffer for the C1q ELISA, for the C1q ELISA wells were incubated with rabbit anti-human C1q (DAKO, Glostrup, Denmark, A0136), diluted in C1q buffer (1:1000, 100 μl/well, room temperature, 1 h). […] After washing the plates (3×) with PBST for the C3 and C4 ELISA and C1q buffer for the C1q ELISA, for the C1q ELISA wells were incubated with HRP-conjugated swine anti-rabbit IgG-Fc (DAKO, P0399) diluted in ELISA buffer (1:2500, 100 μl/well, room temperature, 1 h). […] Absorbance was measured at 405 nm in an ELISA plate reader (Biotek Instruments Inc., Winooski, USA). To analyze, if complement activation by human IgG isotypes depends on the source of the complement, both human and rhesus serum were tested.

C1q (3% rhesus serum) = biological target: T4, C1q (3% rhesus serum) (Macaca mulatta); assay: ELISA: IgG coated at varied concentration (the concentration is that of the coating), C1q binding read as OD405, 3% rhesus serum
T4 construct: native protein in 3% serum; also called rhesus C1q; C1q of rhesus monkey serum
Description: as §1

| Binder | IC50 (read off the curve) [1] [nmol/L] | Kd [2] [nM] | precipitation of the flag tagged antibody, percent remaining at two fold excess [2] [%] | binding result (human C1q [3]) | EC50 (read off the curve) [4] [nmol/L] | fold reduced affinity compared to human receptor (AChR of rhesus monkeys) [fold] | EC50 (read off the curve) (human C1q [5]) [µg/mL] | EC50 (read off the curve) (C1q (3% rhesus serum)) [µg/mL] |
| --- | --- | --- | --- | --- | --- | --- | --- | --- |
| B1 | ~10 | ~1.7 | ~50 | no binding | ~3 | – | – | – |
| B2 | ~10 | ~1.7 | ~50 | – | ~3 | ~10 | ~2 | ~2 |
